# Experimental data published in PMC8833744, “Strategic Decoy Peptides Interfere with MSI1/AGO2 Interaction to Elicit Tumor Suppression Effects” (Cancers, 2022).
# B1: Pep#11 (decoy peptide as used in the SPR) (peptide)
# chain: YQFPEFRVERTPLPS
# B2: Pep#26 (decoy peptide as used in the SPR) (peptide)
# chain: HSLGGPLIATAFTNG
# Target: T1, recombinant His-tagged AGO2 (UniProt Q9UKV8 1-859)
# T1 construct: AGO2 (argonaute 2); Detected on the array by an HRP-conjugated 6xHis antibody; amine-coupled to a CM5 chip in the SPR; also called His-AGO2; AGO2 recombinant protein; source: recombinant, purified
# T1 sequence (Q9UKV8 whole entry): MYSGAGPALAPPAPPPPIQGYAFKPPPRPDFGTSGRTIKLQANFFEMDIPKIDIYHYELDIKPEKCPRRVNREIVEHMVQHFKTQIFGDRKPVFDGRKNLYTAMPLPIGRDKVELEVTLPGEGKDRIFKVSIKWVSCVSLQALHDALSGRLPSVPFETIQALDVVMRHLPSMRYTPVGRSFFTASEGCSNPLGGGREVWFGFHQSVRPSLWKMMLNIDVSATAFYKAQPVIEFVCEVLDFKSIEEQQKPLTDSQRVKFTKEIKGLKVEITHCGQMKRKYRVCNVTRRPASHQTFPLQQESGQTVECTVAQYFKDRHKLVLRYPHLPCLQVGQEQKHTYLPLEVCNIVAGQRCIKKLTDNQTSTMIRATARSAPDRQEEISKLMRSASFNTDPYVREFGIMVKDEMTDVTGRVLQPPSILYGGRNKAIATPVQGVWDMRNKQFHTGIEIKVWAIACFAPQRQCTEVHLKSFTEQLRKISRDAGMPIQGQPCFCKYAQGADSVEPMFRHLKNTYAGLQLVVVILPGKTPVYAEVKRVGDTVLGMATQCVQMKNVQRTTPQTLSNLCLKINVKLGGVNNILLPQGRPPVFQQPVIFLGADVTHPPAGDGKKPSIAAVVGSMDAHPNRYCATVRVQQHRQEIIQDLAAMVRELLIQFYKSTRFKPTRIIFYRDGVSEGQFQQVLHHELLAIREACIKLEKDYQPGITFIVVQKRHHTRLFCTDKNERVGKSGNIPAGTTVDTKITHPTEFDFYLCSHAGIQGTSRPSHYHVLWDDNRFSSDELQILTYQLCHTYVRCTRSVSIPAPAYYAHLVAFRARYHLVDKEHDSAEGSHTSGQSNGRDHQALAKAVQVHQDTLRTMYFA
# Test: SPR; Biacore T200; His-AGO2 immobilised on a CM5 chip by amine coupling (~7000 RU); peptides 20 to 1280 nM in HBS-P (10 mM HEPES, 150 mM NaCl, 0.005% T20, pH 7.4), 30 µL/min; Langmuir 1:1 model
# Conditions: both partners purified
binder,measurement,value
B1,Kd,515 nM
B2,Kd,674 nM
